The text below walks through data of publication PMC9891163 (Drug Delivery, 2023).

The data set can be described thus: Aqueous dispersibility of the peptide-lipid conjugate. In kind it is physicochemical.

In the case of “(Dipalmitoyl)lysine-KSS-(SG)5-ApoEdp [ApoEdp-SG-lipid]”, the Aqueous dispersibility entry is on record as “excellent aqueous dispersibility”.
